Data taken from paper PMC4379015, “Chemical and Thermal Unfolding of a Global Staphylococcal Virulence Regulator with a Flexible C-Terminal End” (PLoS ONE, 2015).

B1: rSarA (a C-terminally histidine-tagged SarA) (natural protein)
chain: MAITKINDCFELLSMVTYADKLKSLIKKEFSISFEEFAVLTYISENKEKEYYLKDIINHLNYKQPQVVKAVKILSQEDYFDKKRNEHDERTVLILVNAQQRKKIESLLSRVNKRITEANNEIEL
notes: the cloning attached eight additional residues at the C-terminal end of SarA; Leu 125 and Glu 126 of rSarA lie in the tag; also called recombinant SarA; not shown: His6 (eight additional residues including six histidine residues), C-terminal, kept

Tests used:
[1] = tested on: rSarA (Staphylococcus aureus strain Newman); assay: EMSA; conditions: Gel shift buffer not stated (performed as reported earlier); rSarA kept in buffer A: 20 mM phosphate pH 8.0, 100 mM NaCl, 5% glycerol; binding temperature not …
[2] = target: the molecule itself; assay: SEC; analytical gel filtration of rSarA (20 uM) without denaturant; apparent mass from the elution volumes of monomeric marker proteins

Row | Molecule | K half [1] | stoichiometry N [2]
1 | hla DNA | 286 nM | –
2 | B1 | – | 2
